{"source": "patent US20190177366A1", "about": "(published 2019)", "note": "Ends that are not written are not given here."}
{"target": "T1, proprotein convertase subtilisin/kexin type 9 (PCSK9) (human, UniProt Q8NBP7 31-152)", "T1 construct": "domain: prodomain; Recombinant; tag not written as a part; also called rec.PCSK9; His-PCSK9", "T1 sequence (Q8NBP7 31-152 limits assumed, chain 1 of 2)": "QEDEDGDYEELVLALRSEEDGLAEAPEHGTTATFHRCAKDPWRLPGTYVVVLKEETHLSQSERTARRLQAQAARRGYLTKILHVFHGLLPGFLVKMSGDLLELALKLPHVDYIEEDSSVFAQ", "T1 sequence (Q8NBP7 153-692 limits assumed, chain 2 of 2)": "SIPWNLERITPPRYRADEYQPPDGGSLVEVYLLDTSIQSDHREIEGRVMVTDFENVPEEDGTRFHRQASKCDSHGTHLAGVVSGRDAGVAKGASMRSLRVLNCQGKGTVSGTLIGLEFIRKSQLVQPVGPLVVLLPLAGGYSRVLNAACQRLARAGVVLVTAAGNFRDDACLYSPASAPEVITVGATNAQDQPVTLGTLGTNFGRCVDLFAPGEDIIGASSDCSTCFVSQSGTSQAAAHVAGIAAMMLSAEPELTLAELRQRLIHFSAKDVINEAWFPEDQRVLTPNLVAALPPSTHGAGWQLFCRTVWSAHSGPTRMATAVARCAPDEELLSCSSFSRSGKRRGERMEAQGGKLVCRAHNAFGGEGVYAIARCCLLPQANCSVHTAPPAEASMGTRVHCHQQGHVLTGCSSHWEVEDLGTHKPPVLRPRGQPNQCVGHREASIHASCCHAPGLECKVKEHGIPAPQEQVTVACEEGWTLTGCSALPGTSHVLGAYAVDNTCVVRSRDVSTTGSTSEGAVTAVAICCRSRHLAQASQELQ", "test": "phage spot ELISA"}
{"binder": "TAFTSWEEYLDWVGSGACLNHFVSGNMIRC (phage clone)", "note": "[SEQ ID NO 327]", "binding result": "binds"}
{"binder": "TAFTSWEEYLDWVGSGCMEAWQCSLA (phage clone)", "note": "[SEQ ID NO 337]", "binding result": "binds"}
{"binder": "TAFTSWEEYLDWVGSGVLWNHSRI (phage clone)", "note": "[SEQ ID NO 308]", "binding result": "binds"}
{"binder": "TAFTSWEEYLDWVGSGGPWNLNRV (phage clone)", "note": "[SEQ ID NO 309]", "binding result": "binds"}
{"binder": "TAFTSWEEYLDWVGSGALWNMRRVESVAFR (phage clone)", "note": "[SEQ ID NO 319]", "binding result": "binds"}
{"binder": "TAFTSWEEYLDWVGSGPHSYWLDRVQ (phage clone)", "note": "[SEQ ID NO 332]", "binding result": "binds"}
{"binder": "TAFTSWEEYLDWVGSGCVKVGLSWIGDCNS (phage clone)", "note": "[SEQ ID NO 334]", "binding result": "binds"}
{"binder": "TAFTSWEEYLDWVGSGPTSGLTPS (phage clone)", "note": "[SEQ ID NO 361]", "binding result": "binds"}
{"binder": "TAFTSWEEYLDWVGSGSETGLGTYYG (phage clone)", "note": "[SEQ ID NO 350]", "binding result": "binds"}
{"binder": "TAFTSWEEYLDWVGSGPLLWNLQKVH (phage clone)", "note": "[SEQ ID NO 310]", "binding result": "binds"}
{"binder": "TAFTSWEEYLDWVGSGQCYPWCRL (phage clone)", "note": "[SEQ ID NO 338]", "binding result": "binds"}
{"binder": "TAFTSWEEYLDWVGSGCLDRSGGCYTREGYLS (phage clone)", "note": "[SEQ ID NO 353]", "binding result": "binds"}
{"binder": "TAFTSWEEYLDWVGSGEDVVCYGRVDYMPLCV (phage clone)", "note": "[SEQ ID NO 330]", "binding result": "binds"}
{"binder": "TAFTSWEEYLDWVGSGRCESKGWANTCVSE (phage clone)", "note": "[SEQ ID NO 362]", "binding result": "binds"}
{"binder": "TAFTSWEEYLDWVGSGQELPNHRRLS (phage clone)", "note": "[SEQ ID NO 346]", "binding result": "binds"}
{"binder": "TAFTSWEEYLDWVGSGRGGYELNIPR (phage clone)", "note": "[SEQ ID NO 326]", "binding result": "binds"}
{"binder": "TAFTSWEEYLDWVGSGSCSWNVERIRGCSV (phage clone)", "note": "[SEQ ID NO 311]", "binding result": "binds"}
{"binder": "TAFTSWEEYLDWVGSGMVYVDRGVRVFT (phage clone)", "note": "[SEQ ID NO 322]", "binding result": "binds"}
{"binder": "TAFTSWEEYLDWVGSGQTTYLRVSSS (phage clone)", "note": "[SEQ ID NO 341]", "binding result": "binds"}
{"binder": "TAFTSWEEYLDWVGSGSPCRVGYTPC (not fully specified (bridges); cysteine pairing not given here, phage clone)", "note": "[SEQ ID NO 351]", "binding result": "binds"}
{"binder": "TAFTSWEEYLDWVGSGNELWNINRLRSS (phage clone)", "note": "[SEQ ID NO 317]", "binding result": "binds"}
{"binder": "TAFTSWEEYLDWVGSGCYPLCRVG (phage clone)", "note": "[SEQ ID NO 355]", "binding result": "binds"}
{"binder": "TAFTSWEEYLDWVGSGCYPLCRVL (phage clone)", "note": "[SEQ ID NO 364]", "binding result": "binds"}
{"binder": "TAFTSWEEYLDWVGSGNCARLYSHQRDYSQVC (phage clone)", "note": "[SEQ ID NO 352]", "binding result": "binds"}
{"binder": "TAFTSWEEYLDWVGSGKLWNLGRV (phage clone)", "note": "[SEQ ID NO 306]", "binding result": "binds"}
{"binder": "TAFTSWEEYLDWVGSGGREMRSVIQM (phage clone)", "note": "[SEQ ID NO 344]", "binding result": "binds"}
{"binder": "TAFTSWEEYLDWVGSGTRYADRGVMVYSLS (phage clone)", "note": "[SEQ ID NO 321]", "binding result": "binds"}
{"binder": "TAFTSWEEYLDWVGSGGDCYPHCRLV (not fully specified (bridges); cysteine pairing not given here, phage clone)", "note": "[SEQ ID NO 359]", "binding result": "binds"}
{"binder": "TAFTSWEEYLDWVGSGNCWSSLRGICENLG (phage clone)", "note": "[SEQ ID NO 307]", "binding result": "binds"}
{"binder": "TAFTSWEEYLDWVGSGKMTHMKAD (phage clone)", "note": "[SEQ ID NO 357]", "binding result": "binds"}
{"binder": "TAFTSWEEYLDWVGSGGCGYRYMCDMINGL (phage clone)", "note": "[SEQ ID NO 358]", "binding result": "binds"}
{"binder": "TAFTSWEEYLDWVGSGPRTYLRGLVD (phage clone)", "note": "[SEQ ID NO 340]", "binding result": "binds"}
{"binder": "TAFTSWEEYLDWVGSGGCVKYRGSVSCQESKT (phage clone)", "note": "[SEQ ID NO 323]", "binding result": "binds"}
{"binder": "TAFTSWEEYLDWVGSGGHPLWNLSRI (phage clone)", "note": "[SEQ ID NO 316]", "binding result": "binds"}
{"binder": "TAFTSWEEYLDWVGSGSYRGAWSVFGGSTD (phage clone)", "note": "[SEQ ID NO 336]", "binding result": "binds"}
{"binder": "TAFTSWEEYLDWVGSGDCLRYRVGSSCS (not fully specified (bridges); cysteine pairing not given here, phage clone)", "note": "[SEQ ID NO 360]", "binding result": "binds"}
{"binder": "TAFTSWEEYLDWVGSGGDCGYHYMCSMT (not fully specified (bridges); cysteine pairing not given here, phage clone)", "note": "[SEQ ID NO 345]", "binding result": "binds"}
{"binder": "TAFTSWEEYLDWVGSGNMCYLRGKMDCNIV (phage clone)", "note": "[SEQ ID NO 347]", "binding result": "binds"}
{"binder": "TAFTSWEEYLDWVGSGKCDSHYIRGVVACH (phage clone)", "note": "[SEQ ID NO 356]", "binding result": "binds"}
{"binder": "TAFTSWEEYLDWVGSGSSTWHFVGGVRV (phage clone)", "note": "[SEQ ID NO 354]", "binding result": "binds"}
{"binder": "TAFTSWEEYLDWVGSGNVRCYRDVPSCS (not fully specified (bridges); cysteine pairing not given here, phage clone)", "note": "[SEQ ID NO 329]", "binding result": "binds"}
{"binder": "TAFTSWEEYLDWVGSGEHQFYSYRGVDVYR (phage clone)", "note": "[SEQ ID NO 324]", "binding result": "binds"}
{"binder": "TAFTSWEEYLDWVGSGVCSDHYIGGKEVRC (phage clone)", "note": "[SEQ ID NO 348]", "binding result": "binds"}
{"binder": "TAFTSWEEYLDWVGSGQVTSLPQA (phage clone)", "note": "[SEQ ID NO 363]", "binding result": "binds"}
{"binder": "TAFTSWEEYLDWVGSGCCSYGYEKCCNG", "note": "[SEQ ID NO 349]", "binding result": "binds"}
{"binder": "TAFTSWEEYLDWVGSGKLWNLTRISS (phage clone)", "note": "[SEQ ID NO 312]", "binding result": "binds"}
{"binder": "TAFTSWEEYLDWVGSGNPTYWLTRIS (phage clone)", "note": "[SEQ ID NO 331]", "binding result": "binds"}
{"binder": "TAFTSWEEYLDWVGSGMPWNLARIER (phage clone)", "note": "[SEQ ID NO 318]", "binding result": "binds"}
{"binder": "TAFTSWEEYLDWVGSGVPWNLARL (phage clone)", "note": "[SEQ ID NO 314]", "binding result": "binds"}
{"binder": "TAFTSWEEYLDWVGSGVPWNLAKI (phage clone)", "note": "[SEQ ID NO 315]", "binding result": "binds"}
{"binder": "TAFTSWEEYLDWVGSGGEYLWNLKRLES (phage clone)", "note": "[SEQ ID NO 320]", "binding result": "binds"}
{"binder": "TAFTSWEEYLDWVGSGCWTYLRGGCSVT (not fully specified (bridges); cysteine pairing not given here, phage clone)", "note": "[SEQ ID NO 339]", "binding result": "binds"}
{"binder": "TAFTSWEEYLDWVGSGKNNYAYLINMPRAPGI (phage clone)", "note": "[SEQ ID NO 325]", "binding result": "binds"}
{"binder": "SGPRTYLRGLVD (phage clone without anchor)", "note": "[SEQ ID NO 366]", "binding result": "binds"}
{"binder": "TAFTSWEEYLDWVGSGRGEVYDKGGVIVHL (phage clone)", "note": "[SEQ ID NO 343]", "binding result": "binds"}
{"binder": "TAFTSWEEYLDWVGSGCPFYDWRCSDFS (not fully specified (bridges); cysteine pairing not given here, phage clone)", "note": "[SEQ ID NO 328]", "binding result": "binds"}
{"binder": "TAFTSWEEYLDWVGSGVVLWNHSRIL (phage clone)", "note": "[SEQ ID NO 313]", "binding result": "binds"}
